Here are results for 2 substances from US20030166021A1.

The target in the assay is c-Myc (human) (UniProt P01106). Nature of the assay: cell-based or functional assay.
Sequence of c-Myc (human) (P01106 16-454 limits assumed): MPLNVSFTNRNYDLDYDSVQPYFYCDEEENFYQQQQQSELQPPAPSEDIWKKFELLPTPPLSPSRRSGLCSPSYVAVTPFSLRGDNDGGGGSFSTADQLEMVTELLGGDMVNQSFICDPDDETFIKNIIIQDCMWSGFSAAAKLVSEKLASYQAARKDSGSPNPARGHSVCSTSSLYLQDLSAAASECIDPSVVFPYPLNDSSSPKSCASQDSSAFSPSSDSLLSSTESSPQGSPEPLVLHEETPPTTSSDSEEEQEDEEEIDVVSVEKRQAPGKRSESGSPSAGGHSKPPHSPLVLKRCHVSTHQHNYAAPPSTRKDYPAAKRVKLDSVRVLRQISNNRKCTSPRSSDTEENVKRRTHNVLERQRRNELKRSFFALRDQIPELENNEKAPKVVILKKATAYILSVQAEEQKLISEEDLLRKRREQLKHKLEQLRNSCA

On to “ATG99 polypeptide (murine clone #99 ORF with initiator methionine, vector neoCMV-ATG99) (from UniProt O08539 310-565)”, for which the focus formation in the Ras cooperation assay (myc + ras, rat embryo fibroblasts) was 2.4 fold. For the substance “human Bin1 (Box-dependent Myc-Interacting protein-1), full-length 451 amino acid product of cDNA p99f (from UniProt O00499 9-593)”, the focus formation in the Ras cooperation assay (MYC + RAS, rat embryo fibroblasts) was found to be 7 fold and the fold decrease in focus formation by MYC (MYC + activated RAS, rat embryo fibroblasts) is 6 fold.
